Data as given in PMC11087511.

What was measured:
human alpha-thrombin [1] = target: T1, human alpha-thrombin (human, UniProt P00734;P00734 328-363;364-622); experiment: inhibition of fluorogenic peptide cleavage; maximum inhibition 55%; not given in the material (Methods for BLI and fluorogenic assay are headings only)
human alpha-thrombin [2] = target: T1, human alpha-thrombin; experiment: BLI; kon 3.9e7 M-1s-1, koff 2.1e-3 s-1; DAB moiety binds active site; not given in the material (Methods for BLI and fluorogenic assay are headings only)
human alpha-thrombin [3] = target: T1, human alpha-thrombin; experiment: inhibition of fluorogenic peptide cleavage; DAB moiety contributes; max inhibition >99%; not given in the material (Methods for BLI and fluorogenic assay are headings only)
thrombin S195A = thrombin S195A (UniProt P00734;P00734 315-363;364-622, S568A); experiment: X-ray crystallography; 2.2 A; Na+; DAB in S1 pocket, aptamer at exosite 2; not given in the material (Methods for BLI and fluorogenic assay are headings only)
human alpha-thrombin [4] = target: T1, human alpha-thrombin; experiment: BLI; not given in the material (Methods for BLI and fluorogenic assay are headings only)
human alpha-thrombin [5] = target: T1, human alpha-thrombin; experiment: inhibition of fluorogenic peptide cleavage; maximum inhibition 30%; not given in the material (Methods for BLI and fluorogenic assay are headings only)

Binder AGTCCGTGGTAGGGCAGGTTGGGGTGACT (structured_DNA, 5' C6-dabigatran) [HD22-0A-DAB] has an IC50 (human alpha-thrombin [1]) of 0.55 nM.

With AAAAAAAAGTCCGTGGTAGGGCAGGTTGGGGTGACT (structured_DNA, 5' C6-dabigatran) [Bio-HD22-7A-DAB] the Kd (human alpha-thrombin [2]) was 0.054 nM.

With AAAAAAAAGTCCGTGGTAGGGCAGGTTGGGGTGACT (structured_DNA, 5' C6-dabigatran) [HD22-7A-DAB] the IC50 (human alpha-thrombin [3]) was 0.1 nM and the binding result (thrombin S195A) was “binds”.

AAAAAAAAGTCCGTAATAAAGCAGGTTAAAATGACT (ssDNA, 5' C6-amine) [Bio-HD23-7A-NH2]: no binding (human alpha-thrombin [4]).

AGTCCGTGGTAGGGCAGGTTGGGGTGACT (structured_DNA) [HD22] gave an IC50 (human alpha-thrombin [5]) of 0.95 nM.
